Data from patent publication US20220119490A1 (Genentech, published 2022).

Assays:
Experiment in all cases: cell surface interaction assay: query ECD tetramerised with fluorescent streptavidin on transfected cells, immunofluorescence
PTPRG expressed on cells = target: T1, PTPRG expressed on cells (human, UniProt P23470 20-1445)
T1 construct: whole, on cells

PTPRT expressed on cells = target: T2, PTPRT expressed on cells (human, UniProt O14522 26-1441)
T2 construct: whole, on cells
T2 sequence (looked up): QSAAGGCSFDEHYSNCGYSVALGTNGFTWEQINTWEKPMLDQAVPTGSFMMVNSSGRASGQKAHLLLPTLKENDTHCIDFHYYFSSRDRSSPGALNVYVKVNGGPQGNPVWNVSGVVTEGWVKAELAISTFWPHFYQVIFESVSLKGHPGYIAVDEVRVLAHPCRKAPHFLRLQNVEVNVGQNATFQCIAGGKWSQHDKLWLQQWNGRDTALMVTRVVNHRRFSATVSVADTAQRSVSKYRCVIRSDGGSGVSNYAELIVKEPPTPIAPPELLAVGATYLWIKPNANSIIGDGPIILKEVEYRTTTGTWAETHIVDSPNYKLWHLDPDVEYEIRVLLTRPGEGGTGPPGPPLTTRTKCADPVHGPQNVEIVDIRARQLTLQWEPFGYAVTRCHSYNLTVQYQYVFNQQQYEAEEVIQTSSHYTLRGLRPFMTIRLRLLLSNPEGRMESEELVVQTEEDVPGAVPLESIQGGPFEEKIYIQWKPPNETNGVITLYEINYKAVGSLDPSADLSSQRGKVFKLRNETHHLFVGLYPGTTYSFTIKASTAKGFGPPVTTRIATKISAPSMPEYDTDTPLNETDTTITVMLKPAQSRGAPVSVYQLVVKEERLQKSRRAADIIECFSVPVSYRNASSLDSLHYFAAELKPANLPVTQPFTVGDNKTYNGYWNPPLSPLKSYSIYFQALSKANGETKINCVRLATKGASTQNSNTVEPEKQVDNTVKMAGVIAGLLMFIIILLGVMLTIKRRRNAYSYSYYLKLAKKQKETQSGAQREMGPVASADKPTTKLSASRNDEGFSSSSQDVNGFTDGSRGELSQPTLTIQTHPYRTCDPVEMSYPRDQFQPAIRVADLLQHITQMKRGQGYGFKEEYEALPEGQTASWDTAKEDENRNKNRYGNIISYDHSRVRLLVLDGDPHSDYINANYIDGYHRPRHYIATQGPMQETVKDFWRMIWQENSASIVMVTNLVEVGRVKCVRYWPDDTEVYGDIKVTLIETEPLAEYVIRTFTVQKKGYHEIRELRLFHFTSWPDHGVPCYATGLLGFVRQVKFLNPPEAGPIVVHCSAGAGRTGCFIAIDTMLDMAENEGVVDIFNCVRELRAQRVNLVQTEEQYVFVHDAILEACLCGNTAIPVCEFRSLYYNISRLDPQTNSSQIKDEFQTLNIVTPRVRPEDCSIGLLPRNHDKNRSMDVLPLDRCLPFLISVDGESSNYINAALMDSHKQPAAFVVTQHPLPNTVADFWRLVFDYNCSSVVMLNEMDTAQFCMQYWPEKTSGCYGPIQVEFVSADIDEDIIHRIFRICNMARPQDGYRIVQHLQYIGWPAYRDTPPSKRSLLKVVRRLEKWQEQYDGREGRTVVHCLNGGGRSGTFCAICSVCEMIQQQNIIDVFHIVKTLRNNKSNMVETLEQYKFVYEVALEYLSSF

PTPRO expressed on cells = target: T3, PTPRO expressed on cells (human, UniProt Q16827 30-1216)
T3 construct: whole, on cells
T3 sequence (looked up): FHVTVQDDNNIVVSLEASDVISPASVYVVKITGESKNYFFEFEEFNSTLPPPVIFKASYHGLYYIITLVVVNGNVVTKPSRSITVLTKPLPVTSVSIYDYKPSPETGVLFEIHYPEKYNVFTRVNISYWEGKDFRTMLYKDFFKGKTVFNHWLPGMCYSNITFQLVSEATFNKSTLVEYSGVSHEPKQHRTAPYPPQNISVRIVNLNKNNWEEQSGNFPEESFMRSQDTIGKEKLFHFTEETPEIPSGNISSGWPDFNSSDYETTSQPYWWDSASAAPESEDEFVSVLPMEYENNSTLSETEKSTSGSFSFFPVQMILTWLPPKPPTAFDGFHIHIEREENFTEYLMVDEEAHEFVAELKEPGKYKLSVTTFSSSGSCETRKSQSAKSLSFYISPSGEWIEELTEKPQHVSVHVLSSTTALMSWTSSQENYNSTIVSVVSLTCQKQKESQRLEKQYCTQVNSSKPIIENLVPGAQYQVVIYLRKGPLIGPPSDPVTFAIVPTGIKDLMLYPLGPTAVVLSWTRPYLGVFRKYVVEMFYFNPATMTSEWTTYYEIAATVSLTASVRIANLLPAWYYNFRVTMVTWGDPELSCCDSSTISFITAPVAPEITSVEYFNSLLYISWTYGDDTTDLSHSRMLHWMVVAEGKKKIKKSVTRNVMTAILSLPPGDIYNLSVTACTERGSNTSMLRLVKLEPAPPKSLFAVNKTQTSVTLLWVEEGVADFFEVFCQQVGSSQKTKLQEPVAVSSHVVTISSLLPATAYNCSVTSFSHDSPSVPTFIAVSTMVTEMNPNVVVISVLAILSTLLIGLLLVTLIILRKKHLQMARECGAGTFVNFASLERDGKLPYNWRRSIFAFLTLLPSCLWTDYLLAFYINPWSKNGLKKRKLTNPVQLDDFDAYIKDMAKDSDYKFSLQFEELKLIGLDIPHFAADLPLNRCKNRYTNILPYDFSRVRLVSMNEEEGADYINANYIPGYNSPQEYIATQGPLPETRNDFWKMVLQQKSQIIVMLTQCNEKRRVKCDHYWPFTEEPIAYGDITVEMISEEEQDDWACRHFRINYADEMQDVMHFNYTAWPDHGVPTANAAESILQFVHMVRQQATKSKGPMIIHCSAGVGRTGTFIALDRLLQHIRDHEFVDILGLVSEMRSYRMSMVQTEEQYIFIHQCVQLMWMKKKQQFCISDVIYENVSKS

PTPRM expressed on cells = target: T4, PTPRM expressed on cells (human, UniProt P28827 21-1452)
T4 construct: whole, on cells
T4 sequence (P28827 21-1452): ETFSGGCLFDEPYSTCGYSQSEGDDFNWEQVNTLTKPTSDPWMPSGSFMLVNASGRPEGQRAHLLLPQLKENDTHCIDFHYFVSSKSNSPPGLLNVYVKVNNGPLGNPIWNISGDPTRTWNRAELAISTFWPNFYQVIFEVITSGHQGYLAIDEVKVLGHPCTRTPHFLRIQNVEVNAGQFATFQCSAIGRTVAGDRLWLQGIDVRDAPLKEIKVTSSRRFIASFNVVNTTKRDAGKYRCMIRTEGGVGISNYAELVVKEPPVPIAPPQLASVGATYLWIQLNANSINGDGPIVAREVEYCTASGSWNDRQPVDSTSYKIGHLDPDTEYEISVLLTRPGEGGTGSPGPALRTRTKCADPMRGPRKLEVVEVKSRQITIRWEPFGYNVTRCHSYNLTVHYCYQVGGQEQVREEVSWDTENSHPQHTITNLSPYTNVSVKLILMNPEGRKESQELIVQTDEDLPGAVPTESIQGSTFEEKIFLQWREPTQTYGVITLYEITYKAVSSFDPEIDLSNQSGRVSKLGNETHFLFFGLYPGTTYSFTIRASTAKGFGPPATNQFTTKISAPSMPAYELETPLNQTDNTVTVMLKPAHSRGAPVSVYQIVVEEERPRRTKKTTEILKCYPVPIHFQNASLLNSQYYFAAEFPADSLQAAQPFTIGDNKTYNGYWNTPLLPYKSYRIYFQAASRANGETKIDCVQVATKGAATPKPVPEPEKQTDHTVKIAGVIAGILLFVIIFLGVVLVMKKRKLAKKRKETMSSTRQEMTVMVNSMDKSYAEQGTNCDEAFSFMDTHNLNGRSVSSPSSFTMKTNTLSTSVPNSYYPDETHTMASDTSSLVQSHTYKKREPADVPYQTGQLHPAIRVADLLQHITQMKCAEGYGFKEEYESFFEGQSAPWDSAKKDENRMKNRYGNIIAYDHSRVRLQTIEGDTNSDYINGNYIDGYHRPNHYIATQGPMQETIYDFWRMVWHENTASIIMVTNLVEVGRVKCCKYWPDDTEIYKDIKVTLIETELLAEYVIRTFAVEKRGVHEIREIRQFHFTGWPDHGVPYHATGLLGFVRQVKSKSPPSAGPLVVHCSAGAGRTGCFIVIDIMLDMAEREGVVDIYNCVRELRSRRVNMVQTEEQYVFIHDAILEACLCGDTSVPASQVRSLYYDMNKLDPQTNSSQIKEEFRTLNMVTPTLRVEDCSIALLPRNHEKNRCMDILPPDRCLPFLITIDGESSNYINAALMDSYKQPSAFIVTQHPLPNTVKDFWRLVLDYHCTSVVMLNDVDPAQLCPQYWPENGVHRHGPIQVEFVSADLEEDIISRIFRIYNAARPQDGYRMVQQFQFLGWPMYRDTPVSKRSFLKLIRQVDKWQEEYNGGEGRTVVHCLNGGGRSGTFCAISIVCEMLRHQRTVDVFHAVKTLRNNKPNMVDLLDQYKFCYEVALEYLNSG

PTPRD expressed on cells = target: T5, PTPRD expressed on cells (human, UniProt P23468 21-1912)
T5 construct: whole, on cells; also called receptor-type tyrosine-protein phosphatase delta

Measured: binding result

T1 sequence (P23470 20-1445): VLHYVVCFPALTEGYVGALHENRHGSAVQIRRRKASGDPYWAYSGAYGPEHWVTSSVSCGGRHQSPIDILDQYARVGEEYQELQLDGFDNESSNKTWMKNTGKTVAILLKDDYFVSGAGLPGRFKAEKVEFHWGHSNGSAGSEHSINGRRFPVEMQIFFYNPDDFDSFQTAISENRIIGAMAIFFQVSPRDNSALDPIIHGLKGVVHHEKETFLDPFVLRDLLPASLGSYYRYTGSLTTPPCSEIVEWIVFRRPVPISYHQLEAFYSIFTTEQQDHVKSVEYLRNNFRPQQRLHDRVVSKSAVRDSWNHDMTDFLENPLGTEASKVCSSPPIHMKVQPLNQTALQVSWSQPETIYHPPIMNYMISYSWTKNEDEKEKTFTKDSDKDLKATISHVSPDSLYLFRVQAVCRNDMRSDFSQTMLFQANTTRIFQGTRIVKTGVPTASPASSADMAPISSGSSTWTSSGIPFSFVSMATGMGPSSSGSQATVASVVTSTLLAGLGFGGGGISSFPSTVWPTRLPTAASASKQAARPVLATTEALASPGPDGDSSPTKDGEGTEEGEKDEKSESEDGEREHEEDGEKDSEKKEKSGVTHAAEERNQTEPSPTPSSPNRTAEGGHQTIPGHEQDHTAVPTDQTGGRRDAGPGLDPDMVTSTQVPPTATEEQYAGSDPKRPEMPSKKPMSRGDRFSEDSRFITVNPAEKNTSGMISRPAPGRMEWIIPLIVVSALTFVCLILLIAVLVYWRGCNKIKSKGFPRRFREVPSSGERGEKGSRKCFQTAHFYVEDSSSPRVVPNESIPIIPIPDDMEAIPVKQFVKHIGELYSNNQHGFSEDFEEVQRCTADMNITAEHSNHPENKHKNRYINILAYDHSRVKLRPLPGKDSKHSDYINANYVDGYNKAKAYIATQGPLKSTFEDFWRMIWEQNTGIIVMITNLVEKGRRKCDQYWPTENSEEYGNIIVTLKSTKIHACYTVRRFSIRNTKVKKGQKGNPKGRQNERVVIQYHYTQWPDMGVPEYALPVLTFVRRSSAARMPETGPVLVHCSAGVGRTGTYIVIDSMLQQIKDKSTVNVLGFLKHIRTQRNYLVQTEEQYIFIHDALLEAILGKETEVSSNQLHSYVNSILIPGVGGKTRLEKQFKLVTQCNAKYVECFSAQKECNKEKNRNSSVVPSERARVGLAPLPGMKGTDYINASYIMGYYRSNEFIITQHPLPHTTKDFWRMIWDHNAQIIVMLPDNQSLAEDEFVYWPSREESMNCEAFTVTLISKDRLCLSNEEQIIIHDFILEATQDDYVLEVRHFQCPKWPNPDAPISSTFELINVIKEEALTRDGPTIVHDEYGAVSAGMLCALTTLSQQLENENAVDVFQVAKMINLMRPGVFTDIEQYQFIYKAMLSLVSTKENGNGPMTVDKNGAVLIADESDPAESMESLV

B1: CNTN1 extracellular domain (receptor, human, UniProt Q12860 21-993, looked up)
chain: EFTWYRRYGHGVSEEDKGFGPIFEEQPINTIYPEESLEGKVSLNCRARASPFPVYKWRMNNGDVDLTSDRYSMVGGNLVINNPDKQKDAGIYYCLASNNYGMVRSTEATLSFGYLDPFPPEERPEVRVKEGKGMVLLCDPPYHFPDDLSYRWLLNEFPVFITMDKRRFVSQTNGNLYIANVEASDKGNYSCFVSSPSITKSVFSKFIPLIPIPERTTKPYPADIVVQFKDVYALMGQNVTLECFALGNPVPDIRWRKVLEPMPSTAEISTSGAVLKIFNIQLEDEGIYECEAENIRGKDKHQARIYVQAFPEWVEHINDTEVDIGSDLYWPCVATGKPIPTIRWLKNGYAYHKGELRLYDVTFENAGMYQCIAENTYGAIYANAELKILALAPTFEMNPMKKKILAAKGGRVIIECKPKAAPKPKFSWSKGTEWLVNSSRILIWEDGSLEINNITRNDGGIYTCFAENNRGKANSTGTLVITDPTRIILAPINADITVGENATMQCAASFDPALDLTFVWSFNGYVIDFNKENIHYQRNFMLDSNGELLIRNAQLKHAGRYTCTAQTIVDNSSASADLVVRGPPGPPGGLRIEDIRATSVALTWSRGSDNHSPISKYTIQTKTILSDDWKDAKTDPPIIEGNMEAARAVDLIPWMEYEFRVVATNTLGRGEPSIPSNRIKTDGAAPNVAPSDVGGGGGRNRELTITWAPLSREYHYGNNFGYIVAFKPFDGEEWKKVTVTNPDTGRYVHKDETMSPSTAFQVKVKAFNNKGDGPYSLVAVINSAQDAPSEAPTEVGVKVLSSSEISVHWEHVLEKIVESYQIRYWAAHDKEEAANRVQVTSQEYSARLENLLPDTQYFIEVGACNSAGCGPPSDMIEAFTKKAPPSQPPRIISSVRSGSRYIITWDHVVALSNESTVTGYKVLYRPDGQHDGKLYSTHKHSIEVPIPRDGEYVVEVRAHSDGGDGVVSQVKIS
notes: extracellular domain; Streptavidin tetramer in cell assays; ECD-Fc in SPR; also called contactin 1
no binding: PTPRG expressed on cells | PTPRT expressed on cells | PTPRO expressed on cells | PTPRM expressed on cells | PTPRD expressed on cells
